Laboratory results as given in patent US20240141060A1 (Novartis, published 2024).
Residue numbers refer to the chain shown, from its start.

T1: Recombinant Mouse 5′-Nucleotidase/CD73 Protein, CF (R&D Systems Cat: 4488-EN) (mouse, UniProt Q61503 29-549, limits assumed)
T1 construct: Bought protein; also called Mouse CD73-His; recombinant mouse CD73; not shown: His tag
T1 sequence (looked up): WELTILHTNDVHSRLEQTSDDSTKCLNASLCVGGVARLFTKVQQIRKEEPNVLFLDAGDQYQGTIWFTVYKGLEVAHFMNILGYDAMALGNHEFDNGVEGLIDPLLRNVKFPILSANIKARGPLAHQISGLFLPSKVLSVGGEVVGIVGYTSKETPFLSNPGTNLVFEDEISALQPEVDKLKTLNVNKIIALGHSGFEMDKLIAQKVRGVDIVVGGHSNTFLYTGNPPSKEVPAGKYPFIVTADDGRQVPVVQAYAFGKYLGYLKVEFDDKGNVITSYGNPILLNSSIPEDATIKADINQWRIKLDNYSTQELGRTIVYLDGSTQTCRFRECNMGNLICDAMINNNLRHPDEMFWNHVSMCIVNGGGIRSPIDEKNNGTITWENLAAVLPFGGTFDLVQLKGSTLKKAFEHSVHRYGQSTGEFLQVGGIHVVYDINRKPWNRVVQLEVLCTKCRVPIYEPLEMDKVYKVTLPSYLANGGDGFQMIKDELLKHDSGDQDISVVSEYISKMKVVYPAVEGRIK

T2: Recombinant Human 5′-Nucleotidase/CD73 Protein, CF (R&D Systems Cat: 5795-EN) (human, UniProt P21589 27-547)
T2 construct: Bought protein; also called Human CD73-His; recombinant human CD73; not shown: His tag
T2 sequence (looked up): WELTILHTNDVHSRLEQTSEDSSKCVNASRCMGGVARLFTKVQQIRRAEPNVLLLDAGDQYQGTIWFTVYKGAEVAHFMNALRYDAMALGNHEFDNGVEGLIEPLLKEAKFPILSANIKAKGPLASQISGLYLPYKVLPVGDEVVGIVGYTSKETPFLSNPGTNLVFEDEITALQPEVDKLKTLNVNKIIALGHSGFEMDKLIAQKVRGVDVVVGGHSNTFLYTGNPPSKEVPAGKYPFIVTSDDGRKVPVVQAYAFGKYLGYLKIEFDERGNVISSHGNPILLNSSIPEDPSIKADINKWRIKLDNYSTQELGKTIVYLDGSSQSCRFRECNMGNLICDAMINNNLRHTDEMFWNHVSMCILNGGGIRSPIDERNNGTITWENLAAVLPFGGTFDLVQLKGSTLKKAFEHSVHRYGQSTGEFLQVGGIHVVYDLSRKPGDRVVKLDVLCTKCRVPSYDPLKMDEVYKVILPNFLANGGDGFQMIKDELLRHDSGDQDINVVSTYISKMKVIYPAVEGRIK

T3: Cynomolgus CD73/NT5E Protein (His Tag) (Sino Biological Cat: 90192-C08H-50) (cynomolgus monkey, UniProt A0A2K5V5U7 27-547)
T3 construct: treated as one protein; also called Cynomolgus CD73-His; recombinant cynomolgus monkey CD73; not shown: His tag
T3 sequence: T2 sequence (looked up) with M199T, T350A, V466I

T4: recombinant rat CD73 (Sino Biological 80375-R08H) (rat, UniProt P21588 29-551)
T4 construct: Bought protein; also called rCD73; rat CD73/His
T4 sequence (looked up): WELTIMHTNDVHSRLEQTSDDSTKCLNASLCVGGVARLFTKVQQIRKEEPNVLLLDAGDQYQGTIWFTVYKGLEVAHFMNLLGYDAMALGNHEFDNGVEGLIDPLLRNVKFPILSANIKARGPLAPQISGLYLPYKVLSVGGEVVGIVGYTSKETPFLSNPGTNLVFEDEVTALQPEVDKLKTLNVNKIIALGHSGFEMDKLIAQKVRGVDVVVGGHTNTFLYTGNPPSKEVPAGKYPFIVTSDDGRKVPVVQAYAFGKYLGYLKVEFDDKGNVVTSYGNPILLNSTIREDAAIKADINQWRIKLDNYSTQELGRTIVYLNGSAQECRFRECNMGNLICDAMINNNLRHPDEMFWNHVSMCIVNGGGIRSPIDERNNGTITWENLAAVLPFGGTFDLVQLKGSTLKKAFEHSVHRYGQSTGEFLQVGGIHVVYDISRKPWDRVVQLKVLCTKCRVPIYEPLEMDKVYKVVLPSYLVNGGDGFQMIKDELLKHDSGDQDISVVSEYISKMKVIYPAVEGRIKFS

B1: 376 (antibody, V domains shown)
VH: EVQLLESGGGLVQPGGSLRLSCAASGFTFRSYAMSWVRQAPGKGLEWVSAITGSGGLTYYADSVKGRFTISRDNSKNTLYLQMNSLRAEDTAVYYCARGGLYGSGSYLSDFDLWGRGTLVTVSS
VL: EIVLTQSPATLSVSPGERATLSCRASQSVGSNLAWYQQKPGQAPRLLIYGASTRATGIPARFSGSGSGTEFTLTISSLQSEDFAVYYCQQHNAFPYTFGGGTKVEIK
notes: also called progeny antibody 376; Lineage 3 child
B2: 930 (antibody, V domains shown)
VH: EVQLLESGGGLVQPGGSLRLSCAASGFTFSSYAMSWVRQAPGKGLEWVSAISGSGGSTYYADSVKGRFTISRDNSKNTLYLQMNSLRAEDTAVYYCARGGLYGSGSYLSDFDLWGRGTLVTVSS
VL: B1 VL
notes: also called parental antibody 930; Lineage 3 parent
B3: 379 (antibody, V domains shown)
VH: B1 VH with R30S, S31R, A50S, T52S, S54T, L57S
VL: B1 VL
notes: also called progeny antibody 379; Lineage 3 child
B4: 377 (antibody, V domains shown)
VH: B1 VH with R30K, T52S, G56S, L57Y
VL: B1 VL
notes: also called progeny antibody 377; Lineage 3 child
B5: 358.C (antibody, V domains shown)
VH: QVQLQESGPGLVKPSETLSLTCTVSGGSISGRYWSWIRQPPGKGLEWIGYIYGTGSTNYNPSLKSRVTISVDTSKNQFSLKLSSVTAADTAVYYCARESQESPYNNWFDPWGQGTLVTVSS
VL: DIQMTQSPSSVSASVGDRVTITCRASQGISSWLAWYQQKPGKAPKLLIYAASSLQSGVPSRFSGSGSGTDFTLTISSLQPEDFATYYCQQGNSFPRTFGGGTKVEIK
B6: 356.C (antibody, V domains shown)
VH: B5 VH with S30E, T54S, N58K
VL: B5 VL
B7: Fab 350 (Fab, V domains shown)
VH: B5 VH with S30E, G31R, R32Y, T54R
VL: DIQMTQSPSSVSASVGDRVTITCRASQGISSWLAWYQQKPGKAPKLLIYAASSLQSGVPSRFSGSGSGTDFTLTISSLQPEDFATYYCQQGNSFPRTFGGGTKVEIKR
notes: Made by a stop between the two proline residues above the core hinge region of the heavy chain; also called 350 Fab; Fab of mAb 350
B8: 350.C (antibody, V domains shown)
VH: B5 VH with S30E, G31R, R32Y, T54R
VL: B5 VL
notes: also called 350 IgG1 format
B9: 918.C (antibody, V domains shown)
VH: B5 VH with G31S, R32Y, G53S, T54S
VL: B5 VL

Key:
[1] = molecular target: T1, Recombinant Mouse 5′-Nucleotidase/CD73 …; assay: restated binding profile (Octet)
[2] = molecular target: T2, Recombinant Human 5′-Nucleotidase/CD73 …; assay: ForteBio Octet RED384 (BLI), whole IgG on AHQ sensors, 100 nM antigen, 1:1 model
Protocol: (§1) Briefly, ForteBio affinity measurements were performed by loading IgGs on-line onto AHQ sensors. Sensors were equilibrated off-line in assay buffer for 30 min and then monitored on-line for 60 seconds for baseline establishment. Sensors with loaded IgGs were exposed to 100 nM antigen for 3 minutes, and afterwards were transferred to assay buffer for 3 min for off-rate measurement. All kinetics were analyzed using the 1:1 binding model. Antigens used were: [0438] Human CD73-His: Recombinant Human 5′-Nucleotidase/CD73 Protein, CF from R&D Systems Cat: 5795-EN [0439] Mouse CD73-His: Recombinant Mouse 5′-Nucleotidase/CD73 Protein, CF from R&D Systems Cat: 4488-EN [0440] Cynomolgus CD73-His: Cynomolgus CD73/NT5E Protein (His Tag) from Sino Biological Cat: 90192-C08H-50

[3] = molecular target: T1, Recombinant Mouse 5′-Nucleotidase/CD73 …; assay: as above
Protocol: as §1

[4] = molecular target: T3, Cynomolgus CD73/NT5E Protein (His Tag) …; assay: as above
Protocol: as §1

[5] = molecular target: T2, Recombinant Human 5′-Nucleotidase/CD73 …; assay: ForteBio Octet RED384 (BLI), whole IgG on AHQ sensors, 100 nM antigen, 1:1 model; * value approaching upper limit for Kd measurement
Protocol: as §1

[6] = molecular target: T2, Recombinant Human 5′-Nucleotidase/CD73 …; assay: Biacore SPR, Fab captured by anti-human Fab on CM5 chip, CD73 0.01-90 nM as analyte
Protocol: (§2) Proteins used were as follows: recombinant human CD73 (R&D Systems 5795-EN); recombinant cynomolgus monkey CD73 (Sino Biological 90912-C08H); recombinant mouse CD73 (R&D Systems 4488-EN); and recombinant rat CD73 (Sino Biological 80375-R08H). Anti-human Fab (GE Healthcare Life Sciences) was immobilized on all 4 flow cells (Fc) on a CM5 chip (GE). […] 0.01 nM to 90 nM CD73 (3-fold dilution series) was flown over all 4 Fcs. All samples were diluted in running buffer HBS-EP+(pH 7.4, 0.01 M HEPES, 150 mM NaCl, 3 mM EDTA and 0.05% (v/v) P20).

[7] = molecular target: T1, Recombinant Mouse 5′-Nucleotidase/CD73 …; assay: as above
Protocol: as §2

[8] = molecular target: T3, Cynomolgus CD73/NT5E Protein (His Tag) …; assay: as above
Protocol: as §2

[9] = molecular target: T4, recombinant rat CD73 (Sino Biological …); assay: as above
Protocol: as §2

[10] = molecular target: T1, Recombinant Mouse 5′-Nucleotidase/CD73 …; assay: ForteBio Octet RED384 (BLI), whole IgG on AHQ sensors, 100 nM antigen, 1:1 model; * value approaching upper limit for Kd measurement
Protocol: as §1

Binder	binding result [1]	Kd [3] [pM]	Kd [4] [pM]	further results
B1	no binding	–	–	–
B2	no binding	–	–	–
B3	no binding	–	–	–
B4	no binding	–	–	–
B5	–	3510	814	Kd [2]: 317 pM
B6	–	401	693	Kd [5]: 243 pM
B7	–	–	–	Kd [6]: ≤ 100 pM; Kd [7]: 17300 pM; Kd [8]: ≤ 100 pM; Kd [9]: 28300 pM
B8	–	–	635	Kd [5]: 248 pM; Kd [10]: 409 pM
B9	–	8880	–	Kd [2]: 1530 pM
